Assay [1] addresses CXCR4 naturally expressed on Jurkat T cells (human) (UniProt P61073). The assay can be described thus: cell-based or functional assay.
Assay [2] has as its target CD4 naturally expressed on Jurkat T cells (human) (UniProt P01730). Briefly: cell-based or functional assay.

CXCR4 naturally expressed on Jurkat T cells (human), sequence (P61073 whole entry): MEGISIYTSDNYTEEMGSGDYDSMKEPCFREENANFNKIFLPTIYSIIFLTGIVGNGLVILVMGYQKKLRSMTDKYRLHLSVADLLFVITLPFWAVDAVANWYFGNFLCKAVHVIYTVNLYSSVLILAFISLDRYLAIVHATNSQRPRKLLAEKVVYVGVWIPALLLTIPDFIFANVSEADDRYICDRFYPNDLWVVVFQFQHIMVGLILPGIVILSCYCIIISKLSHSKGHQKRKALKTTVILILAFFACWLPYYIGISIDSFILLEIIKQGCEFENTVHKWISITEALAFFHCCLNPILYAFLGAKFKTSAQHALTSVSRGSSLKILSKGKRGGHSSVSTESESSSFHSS

On to “gp143/HXB2, a carboxyl-terminus truncated form of the Env (gp160) of HIV-1 strain HXB2, expressed on CHO or 293T cells (from UniProt P04578 31-714)”, for which the fusion ratio (460 nm / 530 nm emission) of 293T cells expressing gp143/HXB2 with Jurkat cells in assay [1] and in assay [2] was 1.54 each time.

Source of the values: US20030036108A1.
